Experimental data taken from patent publication US7329737 (DYAX, dated 2008).

B1: M0094-D08 (Fab, V domains shown)
VH: EVQLLESGGGLVQPGGSLRLSCAASGFTFSHYLMVWVRQAPGKGLEWVSGIVPSGGYTMYADSVKGRFTISRDNSKNTLYLQMNSLRAEDTAVYYCTRASYSSFGLDYWGQGTLVTVSS
VL: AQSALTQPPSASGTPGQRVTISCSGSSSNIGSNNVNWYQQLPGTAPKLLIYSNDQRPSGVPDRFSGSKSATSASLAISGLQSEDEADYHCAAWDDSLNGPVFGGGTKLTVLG
B2: M0114-F04 (Fab, V domains shown)
VH: EVQLLESGGGLVQPGGSLRLSCAASGFTFSHYYMAWVRQAPGKGLEWVSYISPSGGSTKYADSVKGRFTISRDNSKNTLYLQMNSLRAEDTAMYYCARGGGTGTFDIWGQGTMVTVSS
VL: AQSELTQPASVSGSPGQSIAISCTGTSSDIGAYPFVSWYQQHPGKAPKLLIYGVTTRPFGVSDRFSGSKSGSTASLTISGLQAEDEADYYCSSYAGGRNLPYVFGTGTTVTVLG
B3: M0122-A05 (Fab, V domains shown)
VH: EVQLLESGGGLVQPGGSLRLSCAASGFTFSHYPMHWVRQAPGKGLEWVSSIWPSGGHTSYADSVKGRFTISRDNSKNTLYLQMNSLRAEDTATYYCARLSQPIWGQGTLVTVSS
VL: DIQMTQSPSSFSASTGDRVTITCRASQSISRWLAWYQQKPGKAPKLLIYEASTLESGVPSTFSGSGSGTEFTLTISSLQPDDFATYYCQQYNSYPLTFGGGTKVEIKR
B4: M0102-H02 (Fab, V domains shown)
VH: EVQLLESGGGLVQPGGSLRLSCAASGFTFSMYRMFWVRQAPGKGLEWVSVIGPSGGQTAYADSVKGRFTISRDNSKNTLYLQMNSLRAEDTAVYYCARVGVWYGMDVWGQGTTVTVSS
VL: DIQMTQSPATLSLSPGERAALSCRASQSVSNFLAWYQQKPGQAPRLLIYGASNRATDIPARFSGSGSGTDFTLTISSLEPEDFATYYCQQANSFPLTFGGGTKVEIKR
B5: M0092-G06 (Fab, V domains shown)
VH: EVQLLESGGGLVQPGGSLRLSCAASGFTFSHYGMNWVRQAPGKGLEWVSSIWSSGGYTTYADSVKGRFTISRDNSKNTLYLQMNSLRAEDTAVYYCARVGIWYSMDVWGQGTTVTVSS
VL: AQSELTQPRSVSGSPGQSVTISCTGTSGEVANYNYVSWYHQDPGLVPKLKIYDVSRRPSGVPDRFSGAKSGDTASLTISGLQAEDEGDYYCASYVGNDKLVFGGGTKLTVLG
B6: M0113-E03 (Fab, V domains shown)
VH: EVQLLESGGGLVQPGGSLRLSCAASGFTFSRYTMFWVRQAPGKGLEWVSGIYPSGGKTIYADSVKGRFTISRDNSKNTLYLQMNSLRAEDTAVYYCATGGVFGVVDYWGQGTLVTVSS
VL: DIQMTQSPSSLSASVGDRVTITCRASQSINSYLNWYQQKPGKAPNLLIYAASSLQNGVPSRFSGSGSGTDFTLTISSLQPEDFAAYYCQQSYSTPLTFGGGTKVEIKR
B7: M0118-E07 (Fab, V domains shown)
VH: EVQLLESGGGLVQPGGSLRLSCAASGFTFSHYPMDWVRQAPGKGLEWVSRIYPSGGATKYADSVKGRFTISRDNSKNTLYLQMNSLRAEDTATYYCARGGGAFDIWGQGTMVTVSS
VL: DIQMTQSPSSLSASVGDRVTITCRASQGISNYLAWYQQKPGKVPKLLIYAASTLQSGVPSRFSGSGSGTDFTLTISSLQPEDVATYYCQKYNSAPLTFGGGTKVEIKR
B8: M0102-C12 (Fab, V domains shown)
VH: EVQLLESGGGLVQPGGSLRLSCAASGFTFSHYLMGWVRQAPGKGLEWVSVIWPSGGITKYADSVKGRFTISRDNSKNTLYLQMNSLRAEDTAVYYCARGNGGFDSWGQGTLVTVSS
VL: DIQMTQSPSSLSASVGDRVTITCRASQGISNYLAWYQQKPGKVPKLLIYAASTLQSGVPSRFSGSGSGTDFTLTISSLQPEDVATYYCQKYNSAPWTFGQGTKVEIKR
B9: M0093-E11 (Fab, V domains shown)
VH: EVQLLESGGGLVQPGGSLRLSCAASGFTFSHYEMAWVRQAHGKGLEWVSVIYPSGGATRYADSVKGRFTISRDNSKNTLYLQMNSLRAEDTAVYYCARVAQYYGMDVWGQGTTVTVSS
VL: DIQMTQSPATLSLSPGERATLSCRASQSVSSYLAWYQQKPGQAPRLLIYDASNRATGIPARFSGSGSGTDFTLTISSLEPEDFAVYYCQQRSNWLTFGGGTKVEIKR
B10: M0124-C12 (Fab, V domains shown)
VH: EVQLLESGGGLVQPGGSLRLSCAASGFTFSWYTMQWVRQAPGKGLEWVSRIYSSGGGTYYADSVKGRFTISRDNSKNTLYLQMNSLRAEDTAMYYCARVGPWGAFDIWGQGTMVTVSS
VL: DIQMTQSPGTLSLSPGERATLSCRASQSVSSNYLAWYQQKPGKAPKLLIYAASSLQSGVPSRFSGSGSGTDFTLTISSLQPEDFATYYCQQRWTFGQGTKVEIKR
B11: M0115-F08 (Fab, V domains shown)
VH: EVQLLESGGGLVQPGGSLRLSCAASGFTFSHYVMVWVRQAPGKGLEWVSSIYPSGGMTVYADSVKGRFTISRDNSKNTLYLQMNSLRAEDTAVYYCARRGIANSFNIWGQGTMVTVSS
VL: AQSELTQPASVSGSPGQSITISCTGTSSDVGGYNYVSWYQQHPGKAPKLMIYEVSNRPSGVSNRFSGSKSGNTASLTISGLQAEDEADYYCSSYTSSSTWVFGGGTKLTVLG
B12: M0121-H07 (Fab, V domains shown)
VH: EVQLLESGGGLVQPGGSLRLSCAASGFTFSKYYMVWVRQAPGKGLEWVSVIGPSGGWTTYADSVKGRFTISRDNSKNTLYLQMNSLRAEDTAVYYCARVDYSNYFDYWGQGTLVTVSS
VL: DIQMTQSPSSLSASVGDRVTITCRASQSISRYLNWYQQKPGKAPKLLIYAASNLQSGVPSRFSGSGSGRDYTLTISSLQPEDFVTYYCQQSYSTPWTFGQGTKVEIKR
B13: M0136-B06 (Fab, V domains shown)
VH: EVQLLESGGGLVQPGGSLRLSCAASGFTFSSYIMIWVRQAPGKGLEWVSYIRPSGGYTKYADSVKGRFTISRDNSKNTLYLQMNSLRAEDTAVYYCARVINAGPGRGYYWRGYSYSDAFDIWGQGTMVTVSS
VL: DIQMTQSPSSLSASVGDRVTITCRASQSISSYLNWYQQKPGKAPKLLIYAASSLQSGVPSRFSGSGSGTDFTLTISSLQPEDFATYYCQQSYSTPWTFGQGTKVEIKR
B14: M0097-F08 (Fab, V domains shown)
VH: EVQLLESGGGLVQPGGSLRLSCAASGFTFSNYPMVWVRQAPGKGLEWVSVIGPSGGKTKYADSVKGRFTISRDNSKNTLYLQMNSLRAEDTAVYYCARVGVWYGMDVWGQGTTVTVSS
VL: DIQMTQSPSTLSASVGDRVTISCRASQGIGTHLNWYQQKLGNVPKLLIYAASGLQSGVPPRFSGSGSGTDFTLTISSLHPEDSATYFCQQSYSVPRTFGQGTKVEIKR
B15: M0107-B05 (Fab, V domains shown)
VH: EVQLLESGGGLVQPGGSLRLSCAASGFTFSHYLMMWVRQAPGKGLEWVSSIRSSGGITRYADSVKGRFTISRDNSKNTLYLQMNSLRAEDTAVYYCARVGYYYGMDVWGQGTTVTVSS
VL: AQSELTQPASVSGSPGQSITISCTGTSSDVGAYNYVSWYQQHPGKVPKLMIYEVSNRPSGVSNRFSGSKSGNTASLTISGLQAEDEADYYCNSYTTSATLVFGGGTKLTVLS
B16: M0124-A01 (Fab, V domains shown)
VH: EVQLLESGGGLVQPGGSLRLSCAASGFTFSNYPMYWVRQAPGKGLEWVSRIGPSGGHTDYADSVKGRFTISRDNSKNTLYLQMNSLRAEDTAVYYCARAGVWSGLDYWGQGTLVTVSS
VL: DIQMTQSPSSLSASVGDRVTITCRASQSITGYLNWYQQKPGKAPKLLIYAASSLQSGVPSRFSGSGSGTDFTLSISSLQPEDFATYYCQQSYSTPYTFGQGTKLEIKR
B17: M0103-E09 (Fab, V domains shown)
VH: EVQLLESGGGLVQPGGSLRLSCAASGFTFSHYSMLWVRQAPGKGLEWVSSIRPSGGFTKYADSVKGRFTISRDNSKNTLYLQMNSLRAEDTAVYYCARRGVWDAFDIWGQGTMVTVSS
VL: AQYELTQPASVSGSPGQSITISCTGTNTDVGGYNFVSWYQQYPGKAPKLIIFDVTNRPSGVSNRFSGSKSGNTASLTISGLQAEDEADYYCCSYTNTNTLVFAGGTKVTVLG
B18: M0131-F12 (Fab, V domains shown)
VH: EVQLLESGGGLVQPGGSLRLSCAASGFTFSRYAMGWVRQAPGKGLEWVSYIGPSGGNTTYADSVKGRFTISRDNSKNTLYLQMNSLRAEDTAVYYCARDVGGSGSYYMLSYYYYGMDVWGQGTMVTVSS
VL: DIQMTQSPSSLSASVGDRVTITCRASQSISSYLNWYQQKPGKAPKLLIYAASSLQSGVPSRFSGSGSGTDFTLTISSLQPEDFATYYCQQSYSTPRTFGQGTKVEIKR
B19: M0093-C08 (Fab, V domains shown)
VH: EVQLLESGGGLVQPGGSLRLSCAASGFTFSRYPMGWVRQAPGKGLEWVSSIYPSGGSTYYADSVKGRFTISRDNSKNTLYLQMNSLRAEDTAVYYCARVGVWYGMDVWGQGTTVTVSS
VL: DIQMTQSPGTLSLSPGERATLSCRASQSVSSSYLAWYQQKPGQAPRLLIFAASTRATGIPDRFSGSGSATDFTLTISSLEPEDFAVYYCQQRSNWPPELTFSGGTKVEIKR
B20: M0115-F04 (Fab, V domains shown)
VH: EVQLLESGGGLVQPGGSLRLSCAASGFTFSNYLMGWVRQAPGKGLEWVSSIGPSGGYTKYADSVKGRFTISRDNSKNTLYLQMNSLRAEDTAVYYCARGTGTTFFWGQGTLVTVSS
VL: AQSALTQPPSVSVSPGQTVSITCSGDDLGGRHVSWFQQLSGQSPVLVIYQDDKRPSGIPERFSGSNSGNTATLTISGTQSVDEGDYYCLAWHNYKYVFGSGTTVTVLR
B21: M0113-G11 (Fab, V domains shown)
VH: EVQLLESGGGLVQPGGSLRLSCAASGFTFSHYMMQWVRQAPGKGLEWVSGIGPSGGWTKYADSVKGRFTISRDNSKNTLYLQMNSLRAEDTALYYCARLNYGDYVWGQGTLVTVSS
VL: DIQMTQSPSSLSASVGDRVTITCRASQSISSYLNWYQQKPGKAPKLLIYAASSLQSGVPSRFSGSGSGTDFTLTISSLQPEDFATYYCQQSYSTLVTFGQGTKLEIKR

target: T1, hK1 (human tissue kallikrein 1), recombinant (human, UniProt P06870 25-262); test: SPR
T1 construct: Expressed in P. pastoris from KLK1 cDNA and purified; enzymatically active; also called KLK1; Recombinant (Pichia) Kallikrein

Question: B1 was tested. Which Kd did it give?
Answer: 29.8 nM

Question: And the koff?
Answer: 0.00707 s⁻¹

Question: What about the kon of the same binder?
Answer: 237000 M⁻¹ s⁻¹

Question: What does the source list for B2?
Answer: Kd: 30.7 nM; koff: 0.0107 s⁻¹; kon: 348000 M⁻¹ s⁻¹

Question: Which results are given for B3?
Answer: Kd: 30.8 nM; koff: 0.00453 s⁻¹; kon: 147000 M⁻¹ s⁻¹

Question: For B4, which Kd is on record?
Answer: 30.8 nM

Question: And the koff?
Answer: 0.0105 s⁻¹

Question: What about the kon of the same binder?
Answer: 340000 M⁻¹ s⁻¹

Question: What does the source list for B5?
Answer: Kd: 30.9 nM; koff: 0.00663 s⁻¹; kon: 215000 M⁻¹ s⁻¹

Question: How did the Kd turn out when B6 was run?
Answer: 31.5 nM

Question: And the koff?
Answer: 500 s⁻¹

Question: Which Kd does the source give for B7 here?
Answer: 31.8 nM

Question: And the koff?
Answer: 0.0871 s⁻¹

Question: What about the kon of the same binder?
Answer: 2.74e+06 M⁻¹ s⁻¹

Question: For B8, which Kd is on record?
Answer: 35.4 nM

Question: And the koff?
Answer: 2.62 s⁻¹

Question: And the kon?
Answer: 7.39e+07 M⁻¹ s⁻¹

Question: Which results are given for B9?
Answer: Kd: 32.4 nM; koff: 0.0436 s⁻¹; kon: 1.34e+06 M⁻¹ s⁻¹

Question: With B10 as the binder, how does the Kd read?
Answer: 32.5 nM

Question: And the koff?
Answer: 0.126 s⁻¹

Question: What about the kon of the same binder?
Answer: 3.89e+06 M⁻¹ s⁻¹

Question: What does the source list for B11?
Answer: Kd: 32.6 nM; koff: 0.0158 s⁻¹; kon: 484000 M⁻¹ s⁻¹

Question: B12 was tested. Which Kd did it give?
Answer: 32.8 nM

Question: What about the koff of the same binder?
Answer: 0.0055 s⁻¹

Question: What about the kon of the same binder?
Answer: 168000 M⁻¹ s⁻¹

Question: B13 was tested. Which Kd did it give?
Answer: 33 nM

Question: And the koff?
Answer: 0.00661 s⁻¹

Question: And the kon?
Answer: 200000 M⁻¹ s⁻¹

Question: How did the Kd turn out when B14 was run?
Answer: 33.1 nM

Question: What about the koff of the same binder?
Answer: 0.0117 s⁻¹

Question: And the kon?
Answer: 353000 M⁻¹ s⁻¹

Question: Which Kd does the source give for B15 here?
Answer: 33.8 nM

Question: What about the koff of the same binder?
Answer: 0.0203 s⁻¹

Question: What about the kon of the same binder?
Answer: 600000 M⁻¹ s⁻¹

Question: B16 was tested. Which Kd did it give?
Answer: 33.9 nM

Question: And the koff?
Answer: 0.0114 s⁻¹

Question: What about the kon of the same binder?
Answer: 336000 M⁻¹ s⁻¹

Question: B17 was tested. Which Kd did it give?
Answer: 36.4 nM

Question: And the koff?
Answer: 0.00884 s⁻¹

Question: And the kon?
Answer: 243000 M⁻¹ s⁻¹

Question: How did the Kd turn out when B18 was run?
Answer: 37 nM

Question: And the koff?
Answer: 0.00472 s⁻¹

Question: What about the kon of the same binder?
Answer: 128000 M⁻¹ s⁻¹

Question: What does the source list for B19?
Answer: Kd: 40.7 nM; koff: 0.00578 s⁻¹; kon: 142000 M⁻¹ s⁻¹

Question: With B20 as the binder, how does the Kd read?
Answer: 41.6 nM

Question: And the koff?
Answer: 0.0131 s⁻¹

Question: And the kon?
Answer: 314000 M⁻¹ s⁻¹

Question: How did the Kd turn out when B21 was run?
Answer: 42.5 nM

Question: What about the koff of the same binder?
Answer: 0.0121 s⁻¹

Question: And the kon?
Answer: 286000 M⁻¹ s⁻¹
